Laboratory results taken from US20260125454A1.
Like-named read-outs stand apart in the source and are kept apart here. Values belong to the binder of their own block, whether it stands above or below them.

How the values were obtained:
[1] = target: synthetic human α-CGRP polypeptide (SEQ ID NO: 97)-NH2 (human); test: BLI (Octet), antibody on AHC2, 50 nM CGRP; association pH 7.4, dissociation pH 7.4
[2] = target: synthetic human α-CGRP polypeptide (SEQ ID NO: 97)-NH2 (human); test: BLI (Octet), antibody on AHC2, 50 nM CGRP; association pH 5.5, dissociation pH 5.5
[3] = target: synthetic human α-CGRP polypeptide (SEQ ID NO: 97)-NH2 (human); test: BLI (Octet), antibody on AHC2, 50 nM CGRP; association pH 7.4, dissociation pH 5.5
[4] = target: Biotin-huCGRPaSA (human); test: ELISA, supernatant; relative to chimeric C245
Biotin-huCGRPaSA (human), sequence (peptide, as listed by the source): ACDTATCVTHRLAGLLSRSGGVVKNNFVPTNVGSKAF

[5] = target: CGRP antigen; test: cell-based or functional assay
[6] = target: CGRP antigen; test: cell-based or functional assay; remark: listed apart in the source
[7] = target: CGRP antigen; test: cell-based or functional assay; remark: listed apart in the source

synthetic human α-CGRP polypeptide (SEQ ID NO: 97)-NH2 (human), sequence (peptide, as listed by the source): as above

- Binding signal (nm) [1]: 0.14 nm
- koff [1]: 8.36e-05 s⁻¹
- Binding signal (nm) [2]: 0.11 nm
- koff [2]: 0.000251 s⁻¹
- Binding signal (nm) [3]: 0.12 nm
- koff [3]: 0.00871 s⁻¹
B1: Galcanezumab Analogue (antibody, INN chains, looked up, V domains shown)
VH: QVQLVQSGAEVKKPGSSVKVSCKASGYTFGNYWMQWVRQAPGQGLEWMGAIYEGTGKTVYIQKFADRVTITADKSTSTAYMELSSLRSEDTAVYYCARLSDYVSGFGYWGQGTTVTVSS
VL: DIQMTQSPSSLSASVGDRVTITCRASKDISKYLNWYQQKPGKAPKLLIYYTSGYHSGVPSRFSGSGSGTDFTLTISSLQPEDFATYYCQQGDALPPTFGGGTKVEIK
modifications: in-house analogue

- Relative binding activity, % [4]: 5%
B2: hu34 (antibody, V domains shown)
VH: QVQLVQSGAEVKKPGASVKVSCKASGYTFIDFNMHWVRQAPGQRLEWMGYIYPYNGDVVYNQNFTNRVTLTVDTSSSTAYMELSSLRSEDTAVYYCAREGLGGYWGQGTLVTVSS
VL: DIVLTQSPDSLAVSLGERATINCKASQNIDFDGYAYMNWYQHKPGQPPKVLIYSVFNLESGVPDRFSGSGSGTDFTLTISSLQAEDVAVYYCQQSHEVPYTFGQGTKLEIK

- IC50 [5]: 0.0847 µg/mL
- Relative binding activity (%) vs Ref(Teva) [5]: 100%
- IC50 [6]: 0.0613 µg/mL
- IC50 [7]: 0.0563 µg/mL
B3: fremanezumab from Teva (antibody, INN chains, looked up, V domains shown)
VH: EVQLVESGGGLVQPGGSLRLSCAASGFTFSNYWISWVRQAPGKGLEWVAEIRSESDASATHYAEAVKGRFTISRDNAKNSLYLQMNSLRAEDTAVYYCLAYFDYGLAIQNYWGQGTLVTVSS
VL: EIVLTQSPATLSLSPGERATLSCKASKRVTTYVSWYQQKPGQAPRLLIYGASNRYLGIPARFSGSGSGTDFTLTISSLEPEDFAVYYCSQSYNYPYTFGQGTKLEIK

- Binding signal (nm) [1]: 0.12 nm
- koff [1]: < 1e-05 s⁻¹
- Binding signal (nm) [2]: 0.08 nm
- koff [2]: 5.1e-05 s⁻¹
- Binding signal (nm) [3]: 0.1 nm
- koff [3]: < 1e-05 s⁻¹
B4: Fremanezumab Analogue (antibody, INN chains, looked up, V domains shown)
VH: B3 VH
VL: B3 VL
modifications: in-house analogue
